Assays:
[1] = test system: NC(=O)c1ccc[n+]([C@@H]2O[C@H](COP(=O)(O)OP(=O)(O)OC[C@H]3O[C@@H](n4cnc5c(N)ncnc54)[C@H](O)[C@@H]3O)[C@@H](O)[C@H]2O)c1; assay: purified protein; details: 10 mM acetaldehyde (saturating), 100 mM potassium phosphate pH 7.5, 25 °C, free enzyme, varied: cofactor
[2] = test system: CC=O; assay: purified protein; details: 10 mM NAD+ (saturating), 100 mM potassium phosphate pH 7.5, 25 °C, free enzyme

Substance: S2-ALDH (Flavobacterium sp. PL002)
- Km [1]: 2870 ± 480 µM
- Vmax [1]: 0.74 µmol/min/mg
- kcat [1]: 0.121 ± 0.026 s⁻¹
- kcat/Km [1]: 42.2 ± 7.05 M⁻¹ s⁻¹
- Km [2]: 1880 ± 700 µM
- Vmax [2]: 2.64 µmol/min/mg
- kcat [2]: 0.432 ± 0.025 s⁻¹
- kcat/Km [2]: 230 ± 85.2 M⁻¹ s⁻¹

Source: PMC9569350, “Antarctic aldehyde dehydrogenase from Flavobacterium PL002 as a potent catalyst for acetaldehyde determination in wine” (Scientific Reports, 2022)
